The values below come from US20190233522A1 (Genmab, published 2019).

In test [1] the target is T1, AXL (human, UniProt P30530 26-447, limits assumed).
T1 construct: neither the species nor the construct used is stated there; also called human AXL protein; UFO
The test is described as follows: not described.

The target in test [2] is T1, AXL. Nature of the test: competition with Gas6; assay not described.

T1 sequence (P30530 26-447 limits assumed): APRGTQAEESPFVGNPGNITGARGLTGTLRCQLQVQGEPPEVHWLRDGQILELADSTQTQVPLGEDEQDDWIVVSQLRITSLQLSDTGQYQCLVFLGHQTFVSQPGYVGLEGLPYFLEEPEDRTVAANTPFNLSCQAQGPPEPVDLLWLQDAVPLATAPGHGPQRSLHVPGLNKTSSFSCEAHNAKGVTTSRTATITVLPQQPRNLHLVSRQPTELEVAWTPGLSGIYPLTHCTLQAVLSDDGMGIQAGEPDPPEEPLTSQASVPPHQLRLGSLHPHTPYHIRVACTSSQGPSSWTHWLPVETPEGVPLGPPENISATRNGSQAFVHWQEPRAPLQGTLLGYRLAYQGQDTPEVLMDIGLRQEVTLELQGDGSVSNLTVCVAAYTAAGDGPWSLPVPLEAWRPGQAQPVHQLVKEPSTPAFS

B1: IgG1-AXL-107-vcMMAE (antibody, V domains shown)
VH: EVQLLESGGGLVQPGGSLRLSCAASGFTFSSYAMNWVRQAPGKGLEWVSTTSGSGASTYYADSVKGRFTISRDNSKNTLYLQMNSLRAEDTAVYYCAKIWIAFDIWGQGTMVTVSS
VL: not shown
notes: also called HuMax-AXL-ADC; IgG1-1021-107-MMAE
Turning to B1, the binding result with AXL [1] was “binds”.

B2: IgG1-AXL-148-vcMMAE (antibody, V domains shown)
VH: EVQLLESGGGLVQPGGSLRLSCAASGFTFSSYAMTWVRQAPGKGLEWVSAISISGGSTFYADSVKGRFTISRDNSKNTLYLQMNSLRAEDTAVYYCRGYSGYVYDAFDFWGQGTMVTVSS
VL: DIQMTQSPSSLSASVGDRVTITCRASQGISNWLAWYQQKPEKAPKSLIYAASSLQSGVPSRFSGSGSGTDFTLTISSLQPEDFATYYCQQYNSYPLTFGGGTKVEIK
modifications: vcMMAE alkylated to cysteines of the reduced antibody (positions not given)
notes: Antibody-drug conjugate of antibody 148 with vcMMAE; IgG1 by name; also called IgG1-1021-148-MMAE; IgG1-AXL-148-MMAE
For B2, the binding result in the test with AXL [1] was “binds”.

B3: IgG1-AXL-061-vcMMAE (antibody, V domains shown)
VH: QVQLVQSGAEVKKPGASVKVSCKASGYAFTGYGISWVRQAPGQGLEWIGWISAYNGNTNYVQNLQDRVTMTTDTSTSTAYMELRSLRSDDTAVYYCARDHISMLRGIIIRNYWGQGTLVTVSS
VL: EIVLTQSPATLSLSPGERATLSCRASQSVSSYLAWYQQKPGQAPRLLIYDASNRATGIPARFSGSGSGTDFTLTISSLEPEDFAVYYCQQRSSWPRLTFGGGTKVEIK
modifications: vcMMAE alkylated to cysteines of the reduced antibody (positions not given)
notes: Antibody-drug conjugate of antibody 061 with vcMMAE; IgG1 by name
With B3, the binding result with AXL [1] is recorded as “binds”.

B4: IgG1-AXL-061 (antibody, V domains shown)
VH: QVQLVQSGAEVKKPGASVKVSCKASGYAFTGYGISWVRQAPGQGLEWIGWISAYNGNTNYVQNLQDRVTMTTDTSTSTAYMELRSLRSDDTAVYYCARDHISMLRGIIIRNYWGQGTLVTVSS
VL: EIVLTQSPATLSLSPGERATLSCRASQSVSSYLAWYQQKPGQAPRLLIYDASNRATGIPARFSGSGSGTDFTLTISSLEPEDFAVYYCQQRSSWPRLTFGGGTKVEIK
notes: IgG1 by name; Unconjugated antibody
Turning to B4, in the test with AXL [2], the binding result is given as “binds”.
